The results in this text go back to patent US12467053 (BIOMOLECULAR, dated 2025).

Experiment [1] addresses T1, TNF-alpha (R&D Systems) (UniProt P01375 77-233).
T1 construct: also called tumor necrosis factor α; TNF-α
As to the kind of experiment: Biacore T-100 SPR, response against TNF-alpha concentration. Symmetroadhesin amine-coupled to a CM-5 chip. (In general: Surface plasmon resonance follows binding to a sensor surface in real time, without labels.)

Experiment [2] has as its target T1, TNF-alpha (R&D Systems). As to the kind of experiment: Biacore T-100 SPR, response against TNF-alpha concentration. Symmetroadhesin thiol-coupled to a CM-5 chip.

T1 sequence (P01375 77-233 limits assumed): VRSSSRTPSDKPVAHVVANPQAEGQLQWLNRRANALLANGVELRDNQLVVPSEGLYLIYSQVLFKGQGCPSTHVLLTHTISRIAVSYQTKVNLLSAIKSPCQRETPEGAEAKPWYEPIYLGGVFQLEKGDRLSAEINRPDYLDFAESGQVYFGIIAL

B1: TNR1B symmetroadhesin of FIG. 44A (iv) (human TNR1B extracellular domain with a C-terminal-X-terminus) (receptor)
chain: LPAQVAFTPYAPEPGSTCRLREYYDQTAQMCCSKCSPGQHAKVFCTKTSDTVCDSCEDSTYTQLWNWVPECLSCGSRCSSDQVETQACTREQNRICTCRPGWYCALSKQEGCRLCAPLRKCRPGFGVARPGTETSDVVCKPCAPGTFSNTTSSTDICRPHQICNVVAIPGNASMDAVCTSTSPTRSMAPGAVHLPQPVSTRSQHTQPTPEPSTAPSTSFLLPMGPSPPAEGSTGDGC
modifications: C-terminal X residue (residue 237) added by native chemical ligation; cysteine in the material made (cleavage/elution with cysteine)
notes: The same molecule was immobilised by amine chemistry and by thiol chemistry; also called TNR1B-X; TNR2-X
Regarding B1, the “EC50 (read off the curve)” value with TNF-alpha (R&D Systems) [1] is about 4 nM; in the experiment with TNF-alpha (R&D Systems) [2] it was about 0.9 nM.

As a reminder, the EC50 (read off the curve) is the midpoint of the concentration-response curve. A high value points to a need for much substance.
